Experimental data as given in patent US10792332B2, “Anti-infective properties of antifreeze protein” (priority 2013, dated 2020).
“And” between values parts separate entries of the source, which are not always exact repeats. Identical values can stand only once. “Also recorded” adds a separate entry of the source. Ends that are not written are not given here.

Experiments:
[1] = tested on: S. aureus; test: Bacterial growth in vitro (OD600); type: cell-based, Staphylococcus aureus; settings: 0.1 mg/ml in BHI/G, 37° C., SA113 or USA300 JE2
Method: A stationary culture of S. aureus was diluted to OD600=0.01 in BHI medium and supplemented with 0.2 mg/ml recombinant IAFGP-GST, BSA or PBS as control. Bacterial growth was measured over time at OD600 using a spectrophotometer. Growth curves from 5 independent experiments were pooled±SEM.
A stationary culture of S. aureus SA113 or USA300 JE2 was diluted in BHI/G to OD600=0.01 supplemented with 0.1 mg/ml IAFGP-GST, GST, P1, sP1 or media alone. Following static incubation at 37° C. for 24 h bacterial density was measured at OD600 using a spectrophotometer.

[2] = tested on: S. aureus; test: Static biofilm assay (safranin stain); type: cell-based, Staphylococcus aureus; settings: preliminary data
Method: Biofilm assays were performed as described^38. Briefly, planktonic overnight cultures of S. aureus were diluted in glucose-supplemented tryptic soy broth or brain-heart-infusion broth (1% glucose; TSB/G or BHI/G) to OD600=0.015 and distributed into 96 well plates (Corning, NC). After an 18 h incubation at 37° C. bacterial growth in each well was confirmed by the measurement of OD600 using a spectrophotometer (BioTek, VT). The supernatant was discarded and the wells were washed with water twice. Bacteria associated with the well surface were dried and stained with safranin. The dye was then dissolved in 33% acetid acid and quantified at OD415 nm using a spectrophotometer (BioTek, VT). Bacterial attachment to catheter materials pre-incubated with peptides was investigated. Vialon™ catheters (BD Biosciences, NJ) were incubated for 18 h in 0.1 mg/ml peptides dissolved in PBS, washed with PBS and incubated in bacterial suspensions for 24 h. Following removal of non-adherent bacteria with repeated washing, adherent bacteria and biofilms were dissociated using sonication in PBS. Bacterial titers were quantified by plating serial dilutions on agar plates and were calculated per as CFU per catheter.

[3] = Murine subcutaneous catheter implant model; type: in vivo, C57Bl/6 mice; settings: under the conditions used
Method: FIG. 5A depicts bacterial attachment to intravenous catheters that had been incubated in PBS, GST, GST-IAFGP, P2 and P21c before transferring into S. aureus SA113 suspensions. Bacterial attachment was quantified after sonication by plating serial dilutions. Data were pooled from 3 independent experiments (One-Way-ANOVA; *: p<0.05). FIG. 5B presents bacterial attachment to intravenous catheters that had been incubated in PBS, P1 or sP1 and implanted subcutaneously on the dorsal flanks of C57Bl/6 mice. 72 hrs after catheter inoculation with 5×10^5 CFU S. aureus SA113 the catheters were removed and the attached bacteria were quantified by plating serial dilutions. […]
Seven days after catheter inoculation with S. aureus SA113, the catheters were removed, and the attached bacteria were quantified by plating serial dilutions.
(§1) Cecal ligation and puncture surgery was performed as described^26,41 Mice were anesthesized using isoflurane inhalation and the cecum was exteriorized through a peritoneal midline incision. […] Body surface temperature was measured dorsally using an infrared thermometer. A retro-orbital blood sample was taken daily and the cytokine levels of TNF-α, IL-6, IL12b and MCP-1 were measured using enzyme-linked immunosorbent assay (ELISA) kits (eBiosciences, San Diego, Calif.). […] The number of attached bacteria was determined by plating serial dilutions on agar plates.

[4] = tested on: S. aureus SA113; test: Bacterial attachment to pre-incubated intravenous catheters in vitro; type: cell-based, Staphylococcus aureus
Method: FIG. 5A depicts bacterial attachment to intravenous catheters that had been incubated in PBS, GST, GST-IAFGP, P2 and P21c before transferring into S. aureus SA113 suspensions. Bacterial attachment was quantified after sonication by plating serial dilutions. Data were pooled from 3 independent experiments (One-Way-ANOVA; *: p<0.05). FIG. 5B presents bacterial attachment to intravenous catheters that had been incubated in PBS, P1 or sP1 and implanted subcutaneously on the dorsal flanks of C57Bl/6 mice. 72 hrs after catheter inoculation with 5×10^5 CFU S. aureus SA113 the catheters were removed and the attached bacteria were quantified by plating serial dilutions. CFU data were pooled from 3 independent experiments (One-Way-ANOVA with Tukey's post-test; **: p<0.01). […] S. aureus are indicated by black triangles, biofilm matrix are indicated by empty triangles.
Biofilm assays were performed as described^38. Briefly, planktonic overnight cultures of S. aureus were diluted in glucose-supplemented tryptic soy broth or brain-heart-infusion broth (1% glucose; TSB/G or BHI/G) to OD600=0.015 and distributed into 96 well plates (Corning, NC). […] The dye was then dissolved in 33% acetid acid and quantified at OD415 nm using a spectrophotometer (BioTek, VT). […] Bacterial titers were quantified by plating serial dilutions on agar plates and were calculated per as CFU per catheter.

[5] = tested on: S. aureus SA113; test: S. aureus microinjection challenge of iafgp-expressing fruit flies; type: in vivo, D. melanogaster
Method: FIGS. 3A-3E present transgenic expression of iafgp in fruit flies and susceptibility of transgenic flies to S. aureus challenge in vivo. […] Survival data were pooled from 6 independent experiments (Log-rank test; p<0.001). […] Bacterial colonization of individual flies was determined by plating serial dilutions. Data was pooled from 3 independent experiments (One-Way-ANOVA with Tukey's post-test; ***: p<0.001; **: p<0.01; *: p<0.05). FIG. 3C presents PNAG production in iafgp-transgenic and control flies challenged with S. aureus SA113. PNAG levels of pools of 5 flies were assessed at different time points by immunoblot. Average signal intensities of 3 independent experiments±SEM with representative immunoblot images below are shown (Two-Way-ANOVA with Sidak's post test;[…]). FIG. 3D presents PNAG production in iafgp-transgenic and control flies challenged with S. aureus SA113. Paraffin sections of whole flies were stained for bacteria and PNAG. Black triangles point to bacteria, empty triangles indicate PNAG staining. […] Survival data were pooled from 4 independent experiments (Log-rank test; not significant).
Iafgp-expressing and mCherry-expressing flies were generated as described^13. D. melanogaster flies were maintained using standard procedures^39. The fly colony was sustained at 21-23° C. Following infection, flies were incubated at 29° C. to increase UAS-mediated transgene expression. Five to 9 day old females were used for experiments. Twenty to 30 flies per vial were infected by microinjection as reviewed in^40 and survival was monitored. Microinjection was performed into the thorax below the wing using a Nanojet microinjector (Drummond Scientific, PA). Bacteria in stationary growth phase were diluted in PBS to OD600=0.01 or OD600=0.1 and 9.2 nl were injected, corresponding to an infectious dose of 50-100 to 500-1000 CFU per fly respectively. For CFU analysis individual flies were homogenized in […] using a bullet blender (Nextadvance, NY) and steel beads. Serial dilutions were plated on brain-heart-infusion agar plates and incubated at 37° C. overnight. Endogenous fly bacteria only grew to pinprick-size overnight, allowing visual distinction of the fast-growing bacteria used for infection (data not shown). mRNA was isolated from individual flies homogenized in […] using RNAeasy kit (Qiagen, Hilden, Germany). Following DNAse digestion with Turbo DNA-free Kit (Ambion/Life Technologies, NY) RNA was reverse-transcribed with iScript cDNA synthesis kit (BioRad, CA) and gene expression was quantified by qRT-PCR using iQ SYBR Green Supermix (BioRad, CA).

[6] = tested on: Listeria monocytogenes; test: Needle prick infection of iafgp-expressing fruit flies; type: in vivo, D. melanogaster
Excerpt: (§2) A 0.6 μm tungsten needle was dipped into a 1:10 diluted stationary culture of L. monocytogenes and flies were pricked in the right lateral side of the thorax. Fly survival was monitored visually over the course of infection. Uninfected controls (n.i.; n=40) were pricked with a needle dipped into PBS. Data were pooled from 2 independent experiments (Log-rank test; p<0.005). […] Groups of 20-25 flies were transferred into vials containing only a piece of absorbing tissue. Stationary bacterial cultures, resuspended in 4% sucrose and diluted 2-fold were used to soak the paper, controls received only sucrose solution. Every 3 days the flies were transferred into new vials with freshly soaked tissue, and bacterial survival was measured. […] Uninfected controls (n.i.; n=40) were housed in vials with 4% sucrose. Data were pooled from 2 independent experiments (Log-rank test; p<0.001/p<0.001).

[7] = tested on: Pseudomonas entomophila; test: Oral infection of iafgp-expressing fruit flies; type: in vivo, D. melanogaster
Excerpt: as §2

[8] = tested on: Serratia marcescens; test: Oral infection of iafgp-expressing fruit flies; type: in vivo, D. melanogaster
Excerpt: as §2

[9] = tested on: polymicrobial sepsis; test: Cecal ligation and puncture (polymicrobial sepsis) in iafgp-transgenic mice; type: in vivo
Excerpt: Iafgp was constitutively expressed under control of the chicken β-actin promoter in an iafgp-transgenic mouse line. The promoter region was excised from pβAct-CAT 9 (ATCC, VA) using XhoI and HindIII and subcloned into the pEGFP-1 vector (Clontech, CA). EGFP was removed from pβAct-EGFP-1 by digestion with BamHI and NotI resulting in pβAct-1. Iafgp was then PCR-amplified using oligomers iafgp BamHI F and iafgp NotI R, introducing the corresponding restriction sites. The PCR fragment was digested and cloned into linearized pβAct-1, resulting in pβAct-iafgp. For microinjection, the transgene fragment containing the β-actin promoter and iafgp gene was excised from pβAct-iafgp by digestion with XhoI and AflII restriction enzymes and gel purified. Microinjection was performed in […] (C57BL/6×C3H) and mice were genotyped by PCR analysis of tail biopsies using IAFP4qRTF and IAFP4qRTR. mRNA expression of iafgp was confirmed in multiple tissues using the same primers for qRT-PCR. Transgenic iafgp-expressing mice were backcrossed for 8 generations to C57Bl/6 mice (Charles River, Mass.). Heterozygous experimental mice of 6-12 weeks were age- and sex-matched with wild-type littermates and wild-type C57Bl/6 as control. All mice were housed at 20-22° C. with water and food ad libitum. Animal handling was performed according to protocols approved by the Yale animal care and use committee.
as §1, with “incision. Seventy-five percent of the cecum was ligated and punctured through and through with a 21G hypodermic needle.” for “incision.”

[10] = tested on: S. aureus USA300 JE2; test: Intranasal MRSA challenge of iafgp-transgenic mice; type: in vivo; settings: iafgp-transgenic mice vs controls
Method: Iafgp-expressing mice were infected with USA300 JE2. 1.2×10^8 CFU logarithmic growth phase bacteria per mouse were applied intranasally in 50 μl PBS and murine survival was monitored.

[11] = iafgp-expressing flies vs controls

For “AAAAATATAAARRAAAAPTTAKTT [sP1, P2 randomized, soluble, negative control]”, the “bacterial density/viability at OD600 after 24 h static incubation” value [1] was “Neither proteins nor peptides affected bacterial growth”.

In the case of “PARKARAATPATPATAATPATAAT (listed as Ixodes scapularis) [P0]”, the anti-biofilm activity [2] is reported as “anti-biofilm activity has been identified”.

With PARKARAATAATAATAATAATAAT [P1] the toxicity in vivo [3] was “no signs of toxicity”.

B1: IAFGP: Ixodes scapularis anti-freeze glycoprotein, 251 amino acids, SEQ ID NO: 3; also expressed transgenically in flies and mice (protein, listed as Ixodes scapularis)
chain: MTTLLRLTILIVAVAGVLGSSKRAARAATPATAATPATPATAATPAIAATPATAATPATAATPARKARAATPATPATPATAATPATAATPARKARAATAATPATPATAATPARKARAATPATPATAATPATAATPARKARAATPATPATAATPATAATPARKARAATPATPATAATPATAATPARKARAATPATPATAATAATPARKARAATAATPATPATAATPARKARAATPATAATAATPATAATAAA
In the case of B1, the “bacterial attachment / biofilm formation on intravenous catheters in vitro” value [4] is reported as “altered bacterial attachment; also recorded: reduced biofilm formation”, the “lowering of catheter-associated bacteria in comparison to untreated controls” value ([4]; catheters incubated in protein or peptide solution, then S. aureus suspension) is reported as 9 fold and the “pathogen titers in flies over the course of infection” value ([5]; iafgp-expressing flies) is reported as “remained stable over the course of infection”. For the same molecule, the “PNAG quantity during S. aureus infection of flies” value [5, 11] was “reduced”, the “fly survival after S. aureus microinjection” value [5, 11] was “enhanced survival” and the “effect of IAFGP on flies challenged with PNAG-deficient S. aureus ΔicaADBC mutant” value ([5]; ΔicaADBC mutant) was “completely abrogated”. The “fly survival after L. monocytogenes infection” value [6] was “increased fly survival”, the “fly survival after P. entomophila infection” value [7] was “increased fly survival” and the “fly survival after S. marcescens infection” value [8] was “increased fly survival”. For the same molecule, the “general health and activity (disease score)” value ([9]; 24-36 h after surgery, transgenic vs control mice) was “significantly better general health and activity”, the “extended (average) survival compared to controls after CLP” value ([9]; iafgp-expressing mice) was 40% and 35% and the “hypothermia and serum cytokine release of MCP-1, TNF-α, IL6 and IL12p40” value ([9]; iafgp-expressing mice vs controls) was “delayed”. For the same molecule, the “survival after intranasal MRSA challenge” value [10] was “increased survival; also recorded: enhanced survival”.
